Measurements as given in patent US20130224224A1 (Boehringer Ingelheim, published 2013).
Changes are numbered by the printed parent chain. Names and notes keep the numbering of the source. Where two headings read alike, the source gives them in different places.

T1: human CX3CR1 (human, UniProt P49238 1-355)
T1 construct: overexpressed on CHO, BA/F3 or HEK293T cells; also called huCX3CR1; hCX3CR1
T1 sequence: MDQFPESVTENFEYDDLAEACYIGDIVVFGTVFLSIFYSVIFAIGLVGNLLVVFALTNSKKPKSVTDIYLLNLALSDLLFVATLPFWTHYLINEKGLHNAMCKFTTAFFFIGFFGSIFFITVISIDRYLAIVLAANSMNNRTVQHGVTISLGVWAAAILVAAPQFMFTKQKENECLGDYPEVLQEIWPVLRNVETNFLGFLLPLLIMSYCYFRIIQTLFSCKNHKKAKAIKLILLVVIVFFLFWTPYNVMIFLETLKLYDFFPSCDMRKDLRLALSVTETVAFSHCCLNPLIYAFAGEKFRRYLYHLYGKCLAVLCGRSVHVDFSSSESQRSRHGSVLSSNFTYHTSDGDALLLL

T2: cynomolgus CX3CR1 (cynomolgus, UniProt P49238 1-355 (human entry))
T2 construct: transiently expressed on HEK293T cells; also called cyCX3CR1; cyno CX3CR1
T2 chain: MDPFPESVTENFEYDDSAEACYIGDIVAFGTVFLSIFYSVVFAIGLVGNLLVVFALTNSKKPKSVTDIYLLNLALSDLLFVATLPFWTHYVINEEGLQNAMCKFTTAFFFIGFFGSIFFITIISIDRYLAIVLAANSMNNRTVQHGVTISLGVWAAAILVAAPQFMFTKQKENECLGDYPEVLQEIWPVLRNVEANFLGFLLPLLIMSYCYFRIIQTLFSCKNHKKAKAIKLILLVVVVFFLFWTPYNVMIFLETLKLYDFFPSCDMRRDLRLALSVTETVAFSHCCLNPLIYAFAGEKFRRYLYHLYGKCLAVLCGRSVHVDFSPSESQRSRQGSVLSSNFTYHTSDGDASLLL

B1: CX3CR1BII026 (VHH)
chain: EVQLVESGGGLVQAGGSLRLSCVASGRTFSSYAMGWFRQAPGKERAFVAGISGSASRKYYADSVKGRFTVSRDNARNTVYLQMNSLKPEDTAVYYCAASNSYPKVQFDYYGQGTQVTVSSGGGGSGGGGSGGGGSGGGGSGGGGSGGGGSGGGGSEVQLVESGGGSVQAGESLRLSCAASGSIFSSNAMAWYRQAPGKRRDLVAAINSVGVTKYADSVKGRFTISRDNAKNTVYLQMNSLKPEDTAVYYCTSDPRRGWDTRYWGQGTQVTVSS
notes: expressed in E. coli as described for the monovalent VHHs
B2: CX3CR1BII027 (VHH)
chain: B1 chain with R199Q, A205G, V211I, V233A, Q268L
notes: as for B1
B3: CX3CR1BII012 (VHH)
chain: EVQLVESGGGSVQAGGSLRLSCAASGSIFSSNAMAWYRQAPGKQRDLVAGINSVGITKYADSVKGRFTISRDNAKNTVYLQMNSLKPEDTAVYYCTSDPRRGWDTRYWGQGTLVTVSSGGGGSGGGGSGGGGSGGGGSGGGGSGGGGSGGGGSKVQLVESGGGLVQPGGSLRLSCATSGTIFSNNAMGWYRQAPGKKRDLVASISSSGSTNYADSVKGRFTVSRDNDKNTGYLQMNSLKPEDTGVYYCTLDARRGWNTAYWGQGAQVTVSS
notes: as for B1
B4: 306D-hFc (Fc fusion)
chain: DVQLVESGGGLVQPGGSLRLSCAASGSIFSSTAMAWYRQAPGKRRDLVAAISSVGVTKYADSVKGRFTISRDNSKNTVYLQMNSLRPEDTAVYYCTSDPRRGWDTRYWGQGTLVTVSSGGGGSGGGGSGGGGSCPPCPAPEAAGGPSVFLFPPKPKDTLMISRTPEVTCVVVDVSHEDPEVKFNWYVDGVEVHNAKTKPREEQYNSTYRVVSVLTVLHQDWLNGKEYKCKVSNKALPAPIEKTISKAKGQPREPQVYTLPPSREEMTKNQVSLTCLVKGFYPSDIAVEWESNGQPENNYKTTPPVLDSDGSFFLYSKLTVDKSRWQQGNVFSCSVMHEALHNHYTQKSLSLSPGK
notes: CX3CR1BII00306 fused to a human IgG1 Fc domain with two mutations in CH2; expressed in HEK293T or NS0 cells
B5: 307D-hFc (Fc fusion)
chain: B4 chain with S53T
notes: CX3CR1BII00307 fused to a human IgG1 Fc domain with two mutations in CH2; expressed in HEK293T or NS0 cells
B6: 66B02-mFc (Fc fusion)
chain: EVQLVESGGGSVQAGESLRLSCAASGSIFSSNAMAWYRQAPGKRRDLVAAINSVGVTKYADSVKGRFTISRDNAKNTVYLQMNSLKPEDTAVYYCTSDPRRGWDTRYWGQGTLVTVSSGGGGSGGGGSGGGGSPPCKCPAPNLLGGPSVFIFPPKIKDVLMISLSPIVTCVVVAVSEDDPDVQISWFVNNVEVHTAQTQTHREDYNSTLRVVSALPIQHQDWMSGKEFKCKVNNKDLPAPIERTISKPKGSVRAPQVYVLPPPEEEMTKKQVTLTCMVTDFMPEDIYVEWTNNGKTELNYKNTEPVLDSDGSYFMYSKLRVEKKNWVERNSYSCSVVHEGLHNHHTTKSFSRTPGK
notes: 66B02 VHH fused to a mouse IgG2 Fc domain with D265A in CH2; expressed in HEK293T or NS0 cells; dimer form is told only as an aspect

Columns and labels:
human CX3CR1 [1] = target: T1, human CX3CR1; test: A647-fractalkine competition FACS, BA/F3-huCX3CR1
human CX3CR1 [2] = target: T1, human CX3CR1; test: cell-based or functional assay
human CX3CR1 [3] = target: T1, human CX3CR1; test: FACS binding, HEK293T human CX3CR1
human CX3CR1 [4] = target: T1, human CX3CR1; test: A647-fractalkine competition FACS, CHO-huCX3CR1
Excerpt: Periplasmic extracts were screened in a human CX3CR1/human Fractalkine FACS competition assay to assess the blocking capacity of the expressed VHHs. Human CX3CR1 was presented on CHO cells overexpressing CX3CR1. Both a setup using cells harvested from an actively growing culture and a setup using frozen cells was used. As a detection reagent labeled fractalkine was used (R&D Systems, Minneapolis, Minn., USA) labeled with alexa647 (A647-Fractalkine) at a degree of labeling of 1. To setup the assay, first a titration series of the labeled fractalkine was performed on the CHO-huCX3CR1 cells in order to determine the EC50 value for binding. Initially screening was performed at a higher concentration of fractalkine (3 nM) to increase the assay robustness. To increase the sensitivity of the screening to a maximum, the EC30 concentration (1 nM) was chosen for subsequent screening. In brief 50 μl of periplasmic extract was added to 6 nM labeled fractalkine (50 μ;) and 200 000 CHO-huCX3CR1 cells. After one hour incubation at 4 C, cells were washed three times before read out was performed on a FACS Array (Becton Dickinson). First a gate was set on the intact cells as determined from the scatter profile. Next, dead cells were gated out by their fluorescence profile from the PI stain (Sigma, St Louis, US). The fluorescence profile from the alexa647 label was determined for each sample and used for calculation of blocking capacity. As controls, conditions were taken along where there was no VHH present in the peri extract or a known irrelevant VHH and samples were included where excess cold fractalkine was included. For each sample the percentage block was determined using the control samples to determine the assay window.
The inhibition of ligand binding to human CX3CR1 was investigated for the different formats as described in Example 4. For this characterization the BA/F3-huCX3CR1 cell line was used showing stable expression of the human CX3CR1 receptor. The alexa647 labeled ligand fractalkine was used at its EC30 concentration and thereby obtained IC50 values are reflective of the Ki values.

cynomolgus CX3CR1 [5] = target: T2, cynomolgus CX3CR1; test: FACS binding, cynomolgus against human CX3CR1
cynomolgus CX3CR1 [6] = target: T2, cynomolgus CX3CR1; test: FACS binding, HEK293T cynomolgus CX3CR1
human CX3CR1 [7] = target: T1, human CX3CR1; test: cell-based or functional assay; remark: listed apart in the source
human CX3CR1 [8] = target: T1, human CX3CR1; test: A647-fractalkine competition FACS, BA/F3-huCX3CR1; remark: listed apart in the source
human CX3CR1 [9] = target: T1, human CX3CR1; test: cell-based or functional assay; remark: listed apart in the source
human CX3CR1 [10] = target: T1, human CX3CR1; test: A647-fractalkine competition FACS, BA/F3-huCX3CR1; remark: listed apart in the source

Binder	IC50 (human CX3CR1 [1])	% block, fractalkine induced chemotaxis (human CX3CR1 [2])	IC50, fractalkine induced chemotaxis (human CX3CR1 [2])	IC50, Calcium influx (human CX3CR1 [7])	IC50, Chemotaxis (human CX3CR1 [7])	IC50, Ligand internalization (human CX3CR1 [7])	IC50 (human CX3CR1 [8])	other results
B1	700 pM	98%	300 pM	–	–	–	–	–
B2	670 pM	98%	900 pM	–	–	–	–	–
B3	–	78%	4000 pM	–	–	–	–	EC50 (human CX3CR1 [3]): 56 pM; % block (human CX3CR1 [4]): 93%; IC50 (human CX3CR1 [4]): 800 pM; ratio (cynomolgus/human EC50) (cynomolgus CX3CR1 [5]): 1.1; EC50 (cynomolgus CX3CR1 [6]): 63 pM
B4	–	–	–	1300 pM	2900 pM	480 pM	690 pM	–
B5	–	–	–	3200 pM	3000 pM	370 pM	700 pM	–
B6	–	–	–	–	–	–	–	IC50, Calcium influx (human CX3CR1 [9]): 980 pM; IC50, Chemotaxis (human CX3CR1 [9]): 890 pM; IC50, Ligand internalization (human CX3CR1 [9]): 520 pM; IC50 (human CX3CR1 [10]): 570 pM
